From the RNAGym collection of RNA variant scans (doi:10.1021/acssynbio.7b00057)

B1: Pistol ribozyme (parent)
chain: GGGUCGUUGUUCCAUAAUCGCGUGGAUAUGGCACGCAAGUUUCUACCGGGCACCGUAAAUGUCCGACUGGAGCCGUUCGGGCGGCUAUAAACAGACCUCAGGCCCGAAGCGUGGCGGCACCUGCCGCCGGUGGUAAAAAAGAUCGGAAGAGCACACGUCU

Variants of: B1
Assay: aptazyme ON/OFF ratio, guanine; higher = stronger switching; co-transcriptional cleavage with and without guanine
In the case of GGGUCGAGCGCUUAUAAUCGCGUGGAUAUGGCACGCAAGUUUCUACCGGGCACCGUAAAUGUCCGACUGGAGCCGUUCGGGCGGCUAUAAACAGACCUCAGGCCCGAAGCGUGGCGGCACCUGCCGCCGGUGGUAAAAAAGAUCGGAAGAGCACACGUCU, the “aptazyme ON/OFF ratio” value is reported as 1.21.
For GGGUCGAGCGCUAAUAAUCGCGUGGAUAUGGCACGCAAGUUUCUACCGGGCACCGUAAAUGUCCGACUGGAGCCGUUCGGGCGGCUAUAAACAGACCUCAGGCCCGAAGCGUGGCGGCACCUGCCGCCGGUGGUAAAAAAGAUCGGAAGAGCACACGUCU, the “aptazyme ON/OFF ratio” value was 1.31.
In the case of GGGUCGAGCGCUGAUAAUCGCGUGGAUAUGGCACGCAAGUUUCUACCGGGCACCGUAAAUGUCCGACUGGAGCCGUUCGGGCGGCUAUAAACAGACCUCAGGCCCGAAGCGUGGCGGCACCUGCCGCCGGUGGUAAAAAAGAUCGGAAGAGCACACGUCU, the “aptazyme ON/OFF ratio” value is reported as 1.37.
For GGGUCGAGCGCGAAUAAUCGCGUGGAUAUGGCACGCAAGUUUCUACCGGGCACCGUAAAUGUCCGACUGGAGCCGUUCGGGCGGCUAUAAACAGACCUCAGGCCCGAAGCGUGGCGGCACCUGCCGCCGGUGGUAAAAAAGAUCGGAAGAGCACACGUCU, the “aptazyme ON/OFF ratio” value was 1.27.
For GGGUCGAGCGCGGAUAAUCGCGUGGAUAUGGCACGCAAGUUUCUACCGGGCACCGUAAAUGUCCGACUGGAGCCGUUCGGGCGGCUAUAAACAGACCUCAGGCCCGAAGCGUGGCGGCACCUGCCGCCGGUGGUAAAAAAGAUCGGAAGAGCACACGUCU, the “aptazyme ON/OFF ratio” value was 1.3.
With GGGUCGAGCGCGUAUAAUCGCGUGGAUAUGGCACGCAAGUUUCUACCGGGCACCGUAAAUGUCCGACUGGAGCCGUUCGGGCGGCUAUAAACAGACCUCAGGCCCGAAGCGUGGCGGCACCUGCCGCCGGUGGUAAAAAAGAUCGGAAGAGCACACGUCU the “aptazyme ON/OFF ratio” value was 1.4.
With GGGUCGAGCGCCUAUAAUCGCGUGGAUAUGGCACGCAAGUUUCUACCGGGCACCGUAAAUGUCCGACUGGAGCCGUUCGGGCGGCUAUAAACAGACCUCAGGCCCGAAGCGUGGCGGCACCUGCCGCCGGUGGUAAAAAAGAUCGGAAGAGCACACGUCU the “aptazyme ON/OFF ratio” value was 1.04.
For GGGUCGAGCGCCGAUAAUCGCGUGGAUAUGGCACGCAAGUUUCUACCGGGCACCGUAAAUGUCCGACUGGAGCCGUUCGGGCGGCUAUAAACAGACCUCAGGCCCGAAGCGUGGCGGCACCUGCCGCCGGUGGUAAAAAAGAUCGGAAGAGCACACGUCU, the “aptazyme ON/OFF ratio” value was 1.08.
With GGGUCGAGCGCCAAUAAUCGCGUGGAUAUGGCACGCAAGUUUCUACCGGGCACCGUAAAUGUCCGACUGGAGCCGUUCGGGCGGCUAUAAACAGACCUCAGGCCCGAAGCGUGGCGGCACCUGCCGCCGGUGGUAAAAAAGAUCGGAAGAGCACACGUCU the “aptazyme ON/OFF ratio” value was 1.1.
For GGGUCGAGCGCAUAUAAUCGCGUGGAUAUGGCACGCAAGUUUCUACCGGGCACCGUAAAUGUCCGACUGGAGCCGUUCGGGCGGCUAUAAACAGACCUCAGGCCCGAAGCGUGGCGGCACCUGCCGCCGGUGGUAAAAAAGAUCGGAAGAGCACACGUCU, the “aptazyme ON/OFF ratio” value was 1.29.
For GGGUCGAGCGCAGAUAAUCGCGUGGAUAUGGCACGCAAGUUUCUACCGGGCACCGUAAAUGUCCGACUGGAGCCGUUCGGGCGGCUAUAAACAGACCUCAGGCCCGAAGCGUGGCGGCACCUGCCGCCGGUGGUAAAAAAGAUCGGAAGAGCACACGUCU, the “aptazyme ON/OFF ratio” value was 1.22.
With GGGUCGAGCGCAAAUAAUCGCGUGGAUAUGGCACGCAAGUUUCUACCGGGCACCGUAAAUGUCCGACUGGAGCCGUUCGGGCGGCUAUAAACAGACCUCAGGCCCGAAGCGUGGCGGCACCUGCCGCCGGUGGUAAAAAAGAUCGGAAGAGCACACGUCU the “aptazyme ON/OFF ratio” value was 1.38.
In the case of GGGUCGAGCGGCAAUAAUCGCGUGGAUAUGGCACGCAAGUUUCUACCGGGCACCGUAAAUGUCCGACUGGAGCCGUUCGGGCGGCUAUAAACAGACCUCAGGCCCGAAGCGUGGCGGCACCUGCCGCCGGUGGUAAAAAAGAUCGGAAGAGCACACGUCU, the “aptazyme ON/OFF ratio” value is reported as 1.19.
For GGGUCGAGCGGCGAUAAUCGCGUGGAUAUGGCACGCAAGUUUCUACCGGGCACCGUAAAUGUCCGACUGGAGCCGUUCGGGCGGCUAUAAACAGACCUCAGGCCCGAAGCGUGGCGGCACCUGCCGCCGGUGGUAAAAAAGAUCGGAAGAGCACACGUCU, the “aptazyme ON/OFF ratio” value was 1.21.
In the case of GGGUCGAGCGGCUAUAAUCGCGUGGAUAUGGCACGCAAGUUUCUACCGGGCACCGUAAAUGUCCGACUGGAGCCGUUCGGGCGGCUAUAAACAGACCUCAGGCCCGAAGCGUGGCGGCACCUGCCGCCGGUGGUAAAAAAGAUCGGAAGAGCACACGUCU, the “aptazyme ON/OFF ratio” value is reported as 1.31.
For GGGUCGAGCUACCAUAAUCGCGUGGAUAUGGCACGCAAGUUUCUACCGGGCACCGUAAAUGUCCGACUGGAGCCGUUCGGGCGGCUAUAAACAGACCUCAGGCCCGAAGCGUGGCGGCACCUGCCGCCGGUGGUAAAAAAGAUCGGAAGAGCACACGUCU, the “aptazyme ON/OFF ratio” value was 2.34.
For GGGUCGAGCGGCCAUAAUCGCGUGGAUAUGGCACGCAAGUUUCUACCGGGCACCGUAAAUGUCCGACUGGAGCCGUUCGGGCGGCUAUAAACAGACCUCAGGCCCGAAGCGUGGCGGCACCUGCCGCCGGUGGUAAAAAAGAUCGGAAGAGCACACGUCU, the “aptazyme ON/OFF ratio” value was 1.25.
In the case of GGGUCGAGCGGGCAUAAUCGCGUGGAUAUGGCACGCAAGUUUCUACCGGGCACCGUAAAUGUCCGACUGGAGCCGUUCGGGCGGCUAUAAACAGACCUCAGGCCCGAAGCGUGGCGGCACCUGCCGCCGGUGGUAAAAAAGAUCGGAAGAGCACACGUCU, the “aptazyme ON/OFF ratio” value is reported as 1.19.
For GGGUCGAGCGGUCAUAAUCGCGUGGAUAUGGCACGCAAGUUUCUACCGGGCACCGUAAAUGUCCGACUGGAGCCGUUCGGGCGGCUAUAAACAGACCUCAGGCCCGAAGCGUGGCGGCACCUGCCGCCGGUGGUAAAAAAGAUCGGAAGAGCACACGUCU, the “aptazyme ON/OFF ratio” value was 1.2.
With GGGUCGAGCGGACAUAAUCGCGUGGAUAUGGCACGCAAGUUUCUACCGGGCACCGUAAAUGUCCGACUGGAGCCGUUCGGGCGGCUAUAAACAGACCUCAGGCCCGAAGCGUGGCGGCACCUGCCGCCGGUGGUAAAAAAGAUCGGAAGAGCACACGUCU the “aptazyme ON/OFF ratio” value was 1.36.
With GGGUCGAGCGGAAAUAAUCGCGUGGAUAUGGCACGCAAGUUUCUACCGGGCACCGUAAAUGUCCGACUGGAGCCGUUCGGGCGGCUAUAAACAGACCUCAGGCCCGAAGCGUGGCGGCACCUGCCGCCGGUGGUAAAAAAGAUCGGAAGAGCACACGUCU the “aptazyme ON/OFF ratio” value was 1.18.
With GGGUCGAGCGGAUAUAAUCGCGUGGAUAUGGCACGCAAGUUUCUACCGGGCACCGUAAAUGUCCGACUGGAGCCGUUCGGGCGGCUAUAAACAGACCUCAGGCCCGAAGCGUGGCGGCACCUGCCGCCGGUGGUAAAAAAGAUCGGAAGAGCACACGUCU the “aptazyme ON/OFF ratio” value was 1.22.
With GGGUCGAGCGGAGAUAAUCGCGUGGAUAUGGCACGCAAGUUUCUACCGGGCACCGUAAAUGUCCGACUGGAGCCGUUCGGGCGGCUAUAAACAGACCUCAGGCCCGAAGCGUGGCGGCACCUGCCGCCGGUGGUAAAAAAGAUCGGAAGAGCACACGUCU the “aptazyme ON/OFF ratio” value was 1.16.
With GGGUCGAGCGCACAUAAUCGCGUGGAUAUGGCACGCAAGUUUCUACCGGGCACCGUAAAUGUCCGACUGGAGCCGUUCGGGCGGCUAUAAACAGACCUCAGGCCCGAAGCGUGGCGGCACCUGCCGCCGGUGGUAAAAAAGAUCGGAAGAGCACACGUCU the “aptazyme ON/OFF ratio” value was 1.47.
In the case of GGGUCGAGCGCGCAUAAUCGCGUGGAUAUGGCACGCAAGUUUCUACCGGGCACCGUAAAUGUCCGACUGGAGCCGUUCGGGCGGCUAUAAACAGACCUCAGGCCCGAAGCGUGGCGGCACCUGCCGCCGGUGGUAAAAAAGAUCGGAAGAGCACACGUCU, the “aptazyme ON/OFF ratio” value is reported as 1.3.
In the case of GGGUCGAGCGCUCAUAAUCGCGUGGAUAUGGCACGCAAGUUUCUACCGGGCACCGUAAAUGUCCGACUGGAGCCGUUCGGGCGGCUAUAAACAGACCUCAGGCCCGAAGCGUGGCGGCACCUGCCGCCGGUGGUAAAAAAGAUCGGAAGAGCACACGUCU, the “aptazyme ON/OFF ratio” value is reported as 1.07.
In the case of GGGUCGAGCGGGGAUAAUCGCGUGGAUAUGGCACGCAAGUUUCUACCGGGCACCGUAAAUGUCCGACUGGAGCCGUUCGGGCGGCUAUAAACAGACCUCAGGCCCGAAGCGUGGCGGCACCUGCCGCCGGUGGUAAAAAAGAUCGGAAGAGCACACGUCU, the “aptazyme ON/OFF ratio” value is reported as 1.24.
With GGGUCGAGCGGGUAUAAUCGCGUGGAUAUGGCACGCAAGUUUCUACCGGGCACCGUAAAUGUCCGACUGGAGCCGUUCGGGCGGCUAUAAACAGACCUCAGGCCCGAAGCGUGGCGGCACCUGCCGCCGGUGGUAAAAAAGAUCGGAAGAGCACACGUCU the “aptazyme ON/OFF ratio” value was 1.14.
In the case of GGGUCGAGCGGGAAUAAUCGCGUGGAUAUGGCACGCAAGUUUCUACCGGGCACCGUAAAUGUCCGACUGGAGCCGUUCGGGCGGCUAUAAACAGACCUCAGGCCCGAAGCGUGGCGGCACCUGCCGCCGGUGGUAAAAAAGAUCGGAAGAGCACACGUCU, the “aptazyme ON/OFF ratio” value is reported as 1.32.
With GGGUCGAGCUAAGAUAAUCGCGUGGAUAUGGCACGCAAGUUUCUACCGGGCACCGUAAAUGUCCGACUGGAGCCGUUCGGGCGGCUAUAAACAGACCUCAGGCCCGAAGCGUGGCGGCACCUGCCGCCGGUGGUAAAAAAGAUCGGAAGAGCACACGUCU the “aptazyme ON/OFF ratio” value was 1.37.
For GGGUCGAGCUAAUAUAAUCGCGUGGAUAUGGCACGCAAGUUUCUACCGGGCACCGUAAAUGUCCGACUGGAGCCGUUCGGGCGGCUAUAAACAGACCUCAGGCCCGAAGCGUGGCGGCACCUGCCGCCGGUGGUAAAAAAGAUCGGAAGAGCACACGUCU, the “aptazyme ON/OFF ratio” value was 1.47.
In the case of GGGUCGAGCUAAAAUAAUCGCGUGGAUAUGGCACGCAAGUUUCUACCGGGCACCGUAAAUGUCCGACUGGAGCCGUUCGGGCGGCUAUAAACAGACCUCAGGCCCGAAGCGUGGCGGCACCUGCCGCCGGUGGUAAAAAAGAUCGGAAGAGCACACGUCU, the “aptazyme ON/OFF ratio” value is reported as 1.25.
In the case of GGGUCGAGCUAACAUAAUCGCGUGGAUAUGGCACGCAAGUUUCUACCGGGCACCGUAAAUGUCCGACUGGAGCCGUUCGGGCGGCUAUAAACAGACCUCAGGCCCGAAGCGUGGCGGCACCUGCCGCCGGUGGUAAAAAAGAUCGGAAGAGCACACGUCU, the “aptazyme ON/OFF ratio” value is reported as 1.73.
In the case of GGGUCGAGCGGUUAUAAUCGCGUGGAUAUGGCACGCAAGUUUCUACCGGGCACCGUAAAUGUCCGACUGGAGCCGUUCGGGCGGCUAUAAACAGACCUCAGGCCCGAAGCGUGGCGGCACCUGCCGCCGGUGGUAAAAAAGAUCGGAAGAGCACACGUCU, the “aptazyme ON/OFF ratio” value is reported as 1.48.
In the case of GGGUCGAGCGGUGAUAAUCGCGUGGAUAUGGCACGCAAGUUUCUACCGGGCACCGUAAAUGUCCGACUGGAGCCGUUCGGGCGGCUAUAAACAGACCUCAGGCCCGAAGCGUGGCGGCACCUGCCGCCGGUGGUAAAAAAGAUCGGAAGAGCACACGUCU, the “aptazyme ON/OFF ratio” value is reported as 1.18.
For GGGUCGAGCGGUAAUAAUCGCGUGGAUAUGGCACGCAAGUUUCUACCGGGCACCGUAAAUGUCCGACUGGAGCCGUUCGGGCGGCUAUAAACAGACCUCAGGCCCGAAGCGUGGCGGCACCUGCCGCCGGUGGUAAAAAAGAUCGGAAGAGCACACGUCU, the “aptazyme ON/OFF ratio” value was 1.2.
